The values that follow are results of earlier work, collected in article PMC11820823.

One series concerns the target EphA2 Sam (Mus musculus) (UniProt Q03145).
The next series has as its target EphA8 Sam (Mus musculus) (UniProt O09127). The experiment in a line: ITC.
The target in a further series is EphA2 Sam (Homo sapiens) (UniProt P29317).
Chain of EphA2 Sam (Homo sapiens) (P29317 901-971): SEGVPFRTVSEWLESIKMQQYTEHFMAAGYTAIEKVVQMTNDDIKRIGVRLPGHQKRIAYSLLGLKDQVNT

Chain of SASH1 SH3-Sam1 (P59808 547-690): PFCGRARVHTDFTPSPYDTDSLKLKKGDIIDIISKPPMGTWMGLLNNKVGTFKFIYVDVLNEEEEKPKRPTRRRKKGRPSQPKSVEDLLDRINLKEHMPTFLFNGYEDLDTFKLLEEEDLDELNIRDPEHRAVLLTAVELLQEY
Chain of EphA8 Sam (Mus musculus) (O09127 926-996): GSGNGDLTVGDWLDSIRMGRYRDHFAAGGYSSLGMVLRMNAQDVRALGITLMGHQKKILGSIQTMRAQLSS
Chain of Ship2 Sam (O15357 1193-1258): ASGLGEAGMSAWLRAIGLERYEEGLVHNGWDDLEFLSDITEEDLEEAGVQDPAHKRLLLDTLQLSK
Chain of EphA2 Sam (Mus musculus) (Q03145 902-972): as the sequence (P29317 901-971) above, with A27V, T40S, D42E counted along it
Chain of SASH1 Sam1 (P59808 623-693): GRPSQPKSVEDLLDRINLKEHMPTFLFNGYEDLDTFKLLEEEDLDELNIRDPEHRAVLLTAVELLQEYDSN

A word on the Kd: it is the equilibrium constant for the complex coming apart. With SASH1 SH3-Sam1 (from UniProt P59808), the values for the dissociation constant Kd with EphA2 Sam (Mus musculus) and with EphA8 Sam (Mus musculus) were 2520 nM and 1090 nM, respectively. On to SASH1 Sam1 (from UniProt P59808), for which the equilibrium dissociation constant (Kd) in the series with EphA8 Sam (Mus musculus) was 880 nM.

As for Ship2 Sam (from UniProt O15357), the dissociation constant (Kd) in the series with EphA2 Sam (Homo sapiens) is 750 nM.
